Assay results taken from article PMC12955206.

Target: myeloperoxidase (MPO) (human, UniProt P05164 49-745)
Experiment: fluorescence strand displacement

Sequence of myeloperoxidase (MPO) (P05164 49-745): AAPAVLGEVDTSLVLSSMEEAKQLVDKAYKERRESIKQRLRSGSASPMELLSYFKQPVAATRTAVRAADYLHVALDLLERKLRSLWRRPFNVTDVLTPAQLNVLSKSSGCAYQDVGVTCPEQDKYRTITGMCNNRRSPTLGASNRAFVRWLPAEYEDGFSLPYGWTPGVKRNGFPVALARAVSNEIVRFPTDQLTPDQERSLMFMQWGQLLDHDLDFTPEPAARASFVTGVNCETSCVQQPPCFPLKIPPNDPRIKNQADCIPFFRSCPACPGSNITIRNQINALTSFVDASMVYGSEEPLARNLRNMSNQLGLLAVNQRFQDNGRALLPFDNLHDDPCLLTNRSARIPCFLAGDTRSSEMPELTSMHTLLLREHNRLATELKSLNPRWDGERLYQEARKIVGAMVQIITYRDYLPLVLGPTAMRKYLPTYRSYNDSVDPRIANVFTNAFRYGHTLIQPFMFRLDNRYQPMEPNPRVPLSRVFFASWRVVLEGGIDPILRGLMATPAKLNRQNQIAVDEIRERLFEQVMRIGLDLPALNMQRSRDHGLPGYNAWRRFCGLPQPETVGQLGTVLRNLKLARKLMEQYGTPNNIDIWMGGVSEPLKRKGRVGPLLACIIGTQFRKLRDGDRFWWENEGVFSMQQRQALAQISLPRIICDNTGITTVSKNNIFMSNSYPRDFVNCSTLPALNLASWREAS

B1: AptCy3/TBHQ2 duplex (MPO aptamer with trigger strand) (mixed)
DNA 1: CACCTAATACGACTCACTATAGCGGATCCGAAACGCTATTCGGATGGGGTTCCAGATACTAGAAAGAGCAA
DNA 2: CATCCGAATAGCGTTTCGGATC
modifications: internal Cy3-dT at position 45 of the aptamer (Table S1)
B1: binds.
